One may read the koff as the first-order rate constant of dissociation. The Kd is the free concentration of one partner at which half of the binding sites on the other are occupied at equilibrium, for simple one-to-one binding. As usually defined, the Ki is the dissociation constant of the complex between target and ligand, obtained from inhibition or displacement. A low value points to tighter binding.

These results are taken from patent publication US20240181006A1 (Merck KGaA, published 2024).

Numbering of substitutions follows the chain as printed.

Test [1] addresses T1, human MMP13 (activated) (human, UniProt P45452 104-471). The test can be described thus: cell-based or functional assay.
Test [2] addresses T2, rat MMP13 (activated) (rat, UniProt P23097 99-466). Description: cell-based or functional assay.
Another test addresses dog MMP13 (activated) (dog, UniProt A0A8I3MWY2 129-496). The test can be described thus: cell-based or functional assay.
For another test, the target named is bovine MMP13 (activated) (bovine, UniProt O77656 104-471, limits assumed). Description: cell-based or functional assay.
In test [3] the target is cynomolgus MMP13 (activated) (cynomolgus, UniProt A0A2K5U988 104-471). The test can be described thus: cell-based or functional assay.
For test [4], the target named is T3, human ADAMTS5 (human, UniProt Q9UNA0 262-622, limits assumed).
T3 sequence: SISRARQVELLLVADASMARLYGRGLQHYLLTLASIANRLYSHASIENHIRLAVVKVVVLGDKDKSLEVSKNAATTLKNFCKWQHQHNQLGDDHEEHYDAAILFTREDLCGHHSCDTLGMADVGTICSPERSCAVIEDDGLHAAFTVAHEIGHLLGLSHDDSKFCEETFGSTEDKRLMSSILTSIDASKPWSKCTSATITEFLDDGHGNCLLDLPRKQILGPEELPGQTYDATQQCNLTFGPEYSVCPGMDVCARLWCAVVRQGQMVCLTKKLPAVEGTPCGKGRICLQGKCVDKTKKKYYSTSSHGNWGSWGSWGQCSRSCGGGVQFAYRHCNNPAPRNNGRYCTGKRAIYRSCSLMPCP
The test can be described thus: cell-based or functional assay.

The target in test [5] is T3, human ADAMTS5. The test can be described thus: SPR (Biacore T100), ADAMTS5 immobilized on CM5, 100 nM ISVD, Experiment 1.
Description: (§1) Species cross-reactivity was initially evaluated via SPR-based off-rate analysis on a Biacore T100 instrument. Polypeptides were tested for binding to human, cynomolgus monkey (“cyno”), guinea pig, mouse, and bovine ADAMTS5. To this end, recombinant ADAMTS5 was immobilized onto a CM5 chip via amine coupling using EDC and NHS. […] Off-rate for each individual ADAMTS5 was determined by fitting a 1:1 interaction model (Langmuir model) onto the individual dissociation curves using the BIA Evaluation software. As a reference, off-rates on human ADAMTS5 were determined in each experiment.
Test [6] concerns the target T4, cynomolgus ADAMTS5 (cynomolgus, UniProt A0A2K5X879 260-620).
T4 construct: also called cyno ADAMTS5
T4 sequence: T3 sequence with L214Q, S356G
The test is described as above.
Description: as §1

A further test addresses guinea pig ADAMTS5 (guinea pig). The description is as above.
The target in test [7] is T3, human ADAMTS5. Description: SPR (Biacore T100), ADAMTS5 immobilized on CM5, 100 nM ISVD, Experiment 2. (SPR reads the build-up and loss of mass on a sensor chip optically.)
Description: as §1
The next test addresses T5, mouse ADAMTS5 (mouse, UniProt Q9R001 262-622, limits assumed).
T5 sequence (looked up): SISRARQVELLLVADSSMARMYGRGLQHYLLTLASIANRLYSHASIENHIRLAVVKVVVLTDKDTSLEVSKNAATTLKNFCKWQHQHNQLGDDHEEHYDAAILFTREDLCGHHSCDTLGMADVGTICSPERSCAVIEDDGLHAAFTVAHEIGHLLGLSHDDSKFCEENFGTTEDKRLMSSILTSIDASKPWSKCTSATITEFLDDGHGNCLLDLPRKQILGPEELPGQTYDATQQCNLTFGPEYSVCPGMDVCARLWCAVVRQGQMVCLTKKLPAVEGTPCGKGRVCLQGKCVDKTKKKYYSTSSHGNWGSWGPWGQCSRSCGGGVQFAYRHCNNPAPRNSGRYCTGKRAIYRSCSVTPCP
The test is described as above.

Test [8] deals with T3, human ADAMTS5. Description: SPR (Biacore T100), ADAMTS5 immobilized on CM5, 100 nM ISVD, Experiment 3.
Description: as §1
The target of test [9] is T4, cynomolgus ADAMTS5. The test can be described thus: KinExA, in solution (N=1). A general note: In KinExA the mixture passes briefly over coated beads that capture the unbound partner.
Description: (§2) All dilutions were prepared in sample buffer (PBS+0.1% BSA+0.02% NaN₃).
(§3) Percent free Nanobody construct was plotted as a function of ADAMTS5 concentration and fitted using the KinExA Pro Software v3.6.5 to determine the KD.
The next test deals with T6, rat ADAMTS5 (rat, UniProt Q6TY19 262-928).
T6 sequence: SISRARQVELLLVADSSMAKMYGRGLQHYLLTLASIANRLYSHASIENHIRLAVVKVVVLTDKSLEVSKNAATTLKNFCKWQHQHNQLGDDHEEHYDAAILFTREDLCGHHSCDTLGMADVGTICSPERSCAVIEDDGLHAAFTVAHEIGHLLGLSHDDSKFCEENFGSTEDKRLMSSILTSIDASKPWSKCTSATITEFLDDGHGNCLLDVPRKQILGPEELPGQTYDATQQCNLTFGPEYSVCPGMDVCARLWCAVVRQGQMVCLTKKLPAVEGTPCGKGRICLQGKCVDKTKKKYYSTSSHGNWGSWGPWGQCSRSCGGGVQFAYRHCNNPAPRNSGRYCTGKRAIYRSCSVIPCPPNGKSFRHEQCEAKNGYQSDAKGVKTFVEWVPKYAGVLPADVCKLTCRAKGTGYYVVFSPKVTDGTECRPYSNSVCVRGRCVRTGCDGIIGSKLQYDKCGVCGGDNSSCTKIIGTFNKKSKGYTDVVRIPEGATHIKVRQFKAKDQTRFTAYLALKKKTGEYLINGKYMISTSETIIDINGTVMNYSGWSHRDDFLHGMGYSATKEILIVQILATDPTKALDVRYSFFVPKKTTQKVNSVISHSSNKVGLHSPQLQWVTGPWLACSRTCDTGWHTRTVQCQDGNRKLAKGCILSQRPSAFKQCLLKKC
Description: KinExA, in solution (N=1).

For test [10], the target named is T3, human ADAMTS5. The test can be described thus: cell-based or functional assay. This is another data set of the same source.
Test [11] addresses T4, cynomolgus ADAMTS5. Description: cell-based or functional assay.
Test [12] has as its target T2, rat MMP13 (activated). The test can be described thus: cell-based or functional assay. This is another data set of the same source.
In test [13] the target is T7, human MMP13 catalytic domain (human, UniProt P45452 104-274). Description: cell-based or functional assay.
Test [14] has as its target T8, cynomolgus MMP13 catalytic domain (cynomolgus, UniProt A0A2K5U988 104-274). Description: cell-based or functional assay.
In test [15] the target is T9, rat MMP13 catalytic domain (rat, UniProt P23097 99-269). Description: cell-based or functional assay.
Test [16] has as its target T3, human ADAMTS5. Description: KinExA, in solution, without Aggrecan G1-IGD-G2 (average, N=3).
Description: as §2, §3
Test [17] has as its target T2, rat MMP13 (activated). Description: FRET-based kinetic enzyme assay, IC50 equals KI (average, N=2).
Description: (§4) All dilutions were made in assay buffer (50 mM Tris (pH 7.5), 100 mM NaCl, 10 mM CaCl₂)*2H₂O, 0.01% Tween20). […] This collagen-based substrate contains the generic MMP cleavage sequence Proline-Leucine-Glycine-Leucine (PLGL) and is labelled with a fluorochrome, Mca, and a quencher, Dpa. […] Starting within one minute after addition of the substrate, fluorescence was measured kinetically every minute for a total of 120 cycles (2 hours) using a Tecan F200 plate reader.
(§5) The obtained progress curves (fluorescent signal in function of reaction time) were analyzed using GraphPad Prism software, by fitting the linear portion of each progress curve with a straight line (Y=slope*X+Y-intercept).
The target of test [18] is T1, human MMP13 (activated). The test can be described thus: FRET-based kinetic enzyme assay, IC50 equals KI (average, N=3).
Description: as §4, §5
Test [19] addresses T8, cynomolgus MMP13 catalytic domain. Described as above.
Description: as §4, §5
The target of test [20] is T9, rat MMP13 catalytic domain. The description is as above.
Description: as §4, §5
In test [21] the target is T7, human MMP13 catalytic domain. Description: FRET-based kinetic enzyme assay, IC50 equals KI (average, N=6).
Description: as §4, §5
The target of test [22] is T3, human ADAMTS5. Description: KinExA, in solution, in presence of 2 nM Aggrecan G1-IGD-G2 (average, N=3).
Description: as §2, §3
Test [23] deals with T10, recombinant cynomolgus Aggrecan G1-IGD-G2 (cynomolgus).
T10 construct: domain: G1-IGD-G2; also called Cy G1-IGD-G2
Description: SPR (ProteOn XPR36), Aggrecan G1-IGD-G2 immobilized, 949 as analyte (average, N=2).
Description: (§6) Dissociation time was 10 min. After each sample injection the surfaces were regenerated with 10 mM glycine pH 1.5. […] This change in refractive index causes a change in the intensity and angle of reflected light which is quantitatively measured in real-time and plotted as response units (RU) versus time on a sensorgram. The kinetic constants were calculated from the obtained sensorgrams using ProteOn Manager 3.1.0 version 3.1.0.6 software and the ‘kinetic Langmuir kₐ/kd simultaneous’ model.

In test [24] the target is T11, recombinant rat Aggrecan G1-IGD-G2 (rat, UniProt P07897 20-684, limits assumed).
T11 construct: domain: G1-IGD-G2; also called Rat G1-IGD-G2
The test can be described thus: SPR (ProteOn XPR36), Aggrecan G1-IGD-G2 immobilized, 949 as analyte (average, N=3).
Description: as §6

The target of test [25] is T12, recombinant human Aggrecan G1-IGD-G2 (human, UniProt P16112 20-676).
T12 construct: also called Hu G1-IGD-G2
Description: SPR (ProteOn XPR36), Aggrecan G1-IGD-G2 immobilized, 949 as analyte (average, N=4).
Description: as §6

Description for guinea pig ADAMTS5: as §1
Description for mouse ADAMTS5: as §1
Description for rat ADAMTS5: as §2, §3

B1: anti-MMP13 ISVD 62C02 (VHH)
VHH: EVQLVESGGGVVQPGGSLRLSCAASGFAFSAAYMSWVRQAPGKGLEWVSSISDDGSKTYYADSVKGRFTISRDNSKNTVYLQMNSLRPEDTALYYCNTGYGATTTRPGRYWGQGTLVTVSS
With B1, in the test with human MMP13 (activated) [1], the “IC50, human collagenolytic assay” value was found to be 1.4 nM; the “IC50, human fluorogenic collagen assay” value is 8.3 nM; the “IC50, human fluorogenic peptide assay” value amounted to 1.4 nM. The “IC50, rat fluorogenic peptide assay” value in the test with rat MMP13 (activated) [2] came out at 1.1 nM. Further, the “IC50, dog fluorogenic peptide assay” value with dog MMP13 (activated) came out at 1 nM. The “IC50, bovine fluorogenic peptide assay” value in the test with bovine MMP13 (activated) came out at 3.1 nM. Besides, the “IC50, cyno fluorogenic peptide assay” value in test [3] was 1.4 nM.

B2: anti-ADAMTS5 ISVD 02F03 (VHH)
VHH: EVQLVESGGGVVQPGGSLRLSCAASGRTVSSYAMGWFRQAPGKEREFVAGISRSAERTYYVDSLKGRFTISRDNSKNTVYLQMNSLRPEDTALYYCAADLDPNRIFSREEYAYWGQGTLVTVSS
notes: Purified monovalent ISVD; also called 2F03 ATS5
Take B2: in the test with human ADAMTS5 [4], the “IC50, Human AlphaLISA enzymatic assay” value worked out at 0.075 nM. Besides, the “IC50, Human FRET enzymatic assay” value in the test with human ADAMTS5 [4] is 1.8 nM. In addition, the koff with human ADAMTS5 [5] came to 3.3e-05 s⁻¹; in the test with cynomolgus ADAMTS5 [6], 2.2e-05 s⁻¹; with guinea pig ADAMTS5, 3.4e-05 s⁻¹; in the test with human ADAMTS5 [7], 6.5e-05 s⁻¹; with mouse ADAMTS5, 0.00029 s⁻¹; with human ADAMTS5 [8], 9.7e-05 s⁻¹.

B3: polypeptide 949 (62C02-2F03-114F08-114F08, 35GS linkers) (other)
chain: EVQLVESGGGVVQPGGSLRLSCAASGFAFSAAYMSWVRQAPGKGLEWVSSISDDGSKTYYADSVKGRFTISRDNSKNTVYLQMNSLRPEDTALYYCNTGYGATTTRPGRYWGQGTLVTVSSGGGGSGGGGSGGGGSGGGGSGGGGSGGGGSGGGGSEVQLVESGGGVVQPGGSLRLSCAASGRTVSSYAMGWFRQAPGKEREFVAGISRSAERTYYVDSLKGRFTISRDNSKNTVYLQMNSLRPEDTALYYCAADLDPNRIFSREEYAYWGQGTLVTVSSGGGGSGGGGSGGGGSGGGGSGGGGSGGGGSGGGGSEVQLVESGGGVVQPGGSLRLSCAASGSTFIINVVRWYRRAPGKQRELVATISSGGNANYVDSVRGRFTISRDNSKNTVYLQMNSLRPEDTALYYCNVPTTHYGGVYYGPYWGQGTLVTVSSGGGGSGGGGSGGGGSGGGGSGGGGSGGGGSGGGGSEVQLVESGGGVVQPGGSLRLSCAASGSTFIINVVRWYRRAPGKQRELVATISSGGNANYVDSVRGRFTISRDNSKNTVYLQMNSLRPEDTALYYCNVPTTHYGGVYYGPYWGQGTLVTVSSA
notes: Tetravalent, trispecific VHH construct: anti-MMP13, anti-ADAMTS5 and two anti-Aggrecan units; also called C010100949; ALX-1011
For B3, the Kd in the test with cynomolgus ADAMTS5 [9] amounted to 0.0244 nM; with rat ADAMTS5 it was 0.0252 nM; in the test with human ADAMTS5 [16] it was 0.0327 nM; with human ADAMTS5 [22], 0.0266 nM; in [23], 0.016 nM; in [24], 0.0166 nM. For the same molecule, the Kd in [25] stood at 0.014 nM. Also, the “IC50 (read off the curve); FRET-based enzymatic activity assay, Vi/V0” value was roughly 4 nM with human ADAMTS5 [10] and 3 to 4 nM with cynomolgus ADAMTS5 [11]. In the test with rat MMP13 (activated) [12], the “IC50 (read off the curve); FRET-based enzymatic activity assay, Vi/V0 [right panel]” value was roughly 10 nM. Besides, the “IC50 (read off the curve); FRET-based enzymatic activity assay, Vi/V0 [left panel]” value in [13] was roughly 30 nM; in [14] it was roughly 20 nM; in test [15] it was roughly 30 nM. Moreover, the Ki with rat MMP13 (activated) [17] is 13 nM; with human MMP13 (activated) [18] it was 2.92 nM; in test [19] it was 20.2 nM; in test [20], 26.6 nM; in test [21] it was 27.9 nM.
